Test results taken from paper PMC6308316, “Characterization of a Putrescine Transaminase From Pseudomonas putida and its Application to the Synthesis of Benzylamine Derivatives” (Frontiers in Bioengineering and Biotechnology, 2018).

Biological target: the molecule itself
Experiment: crystal structure; apo Pp-SpuC; crystals in 0.2 M MgCl2, 0.1 M Bis-Tris pH 6.5, 25% PEG3350, 20°C; two monomers in the asymmetric unit

B1: putrescine transaminase from Pseudomonas putida (Pp-SpuC) (enzyme)
chain: MSTNNPQTREWQTLSGEHHLAPFSDYKQLKEKGPRIITKAQGVHLWDSEGHKILDGMAGLWCVAVGYGREELVQAAEKQMRELPYYNLFFQTAHPPALELAKAITDVAPEGMTHVFFTGSGSEGNDTVLRMVRHYWALKGKPHKQTIIGRINGYHGSTFAGACLGGMSGMHEQGGLPIPGIVHIPQPYWFGEGGDMTPDAFGIWAAEQLEKKILEVGEDNVAAFIAEPIQGAGGVIIPPETYWPKVKEILAKYDILFVADEVICGFGRTGEWFGSDYYDLKPDLMTIAKGLTSGYIPMGGVIVRDKVAKVISEGGDFNHGFTYSGHPVAAAVGLENLRILRDEQIVEKARTEAAPYLQKRLRELQDHPLVGEVRGLGMLGAIELVKDKATRSRYEGKGVGMICRTFCFENGLIMRAVGDTMIIAPPLVISHAEIDELVEKARKCLDLTLEAIR
notes: putrescine transaminase SpuC of Pseudomonas putida (strain NBRC 14161 bought from NCIMB), cloned in pET-28b as in Galman et al., 2017; in the crystal residues 1-33, 154-179 and 313-324 are disordered; No cleavage of the tag is told; Crystallised in the apo form (no PLP seen); also called putrescine transaminase spuC; source: E. coli BL21 (DE3), pET28b, purified (Ni-NTA, ion exchange on …)
stoichiometry N: 2
